Experimental data as given in patent publication US20110136733A1 (IPSEN PHARMA S A S, published 2011).
Where no end group is shown, it is not given here. [ ]: non-standard residue; d: D form. The star is where a group is joined. Psu = N-propylsuccinimide on the Cys sulfur (from N-propylmaleimide), CCCN1C(=O)CC(*)C1=O; Ac6c = NC1(C(=O)O)CCCCC1; Nle = CCCC[C@H](N)C(=O)O; Aib = CC(C)(N)C(=O)O

B1: [Aib^2, A6c^7, Cys(Psu)^41]hGIP(1-42)-OH (peptide)
peptide: Y[Aib]EGTF[Ac6c]SDYSIAMDKIHQQDFVNWLLAQKGKKNDWKHNIC(Psu)Q-OH
notes: The synthesis text lists Fmoc-Ala-OH, not Aib, at the cycle for position 2

These molecules were tested against T1, human recombinant GIP receptor (human, UniProt P48546 22-466) (assay: [125I]GIP competition, membranes of CHO-K1 cells expressing human GIP receptor).
T1 construct: whole, on cells; Membranes of CHO-K1 cells expressing the receptor; also called hGIP receptor
T1 sequence (looked up): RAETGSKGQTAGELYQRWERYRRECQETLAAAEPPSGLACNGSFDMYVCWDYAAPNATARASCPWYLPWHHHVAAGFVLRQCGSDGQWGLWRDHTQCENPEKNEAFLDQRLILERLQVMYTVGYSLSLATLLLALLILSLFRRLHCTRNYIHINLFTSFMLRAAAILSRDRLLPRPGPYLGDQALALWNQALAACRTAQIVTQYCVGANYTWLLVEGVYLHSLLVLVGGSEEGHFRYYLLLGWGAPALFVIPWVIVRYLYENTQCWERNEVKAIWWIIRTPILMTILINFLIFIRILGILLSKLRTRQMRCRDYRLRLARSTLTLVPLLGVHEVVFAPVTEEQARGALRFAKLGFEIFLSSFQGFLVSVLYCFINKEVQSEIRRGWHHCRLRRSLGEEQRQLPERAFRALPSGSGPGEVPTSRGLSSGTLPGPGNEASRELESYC
Molecule “(Pro^3, A5c^11, Nle^14)hGIP(1-30)-OH (peptide)” has a Ki of 86.8 nM. Work on YXEGTFXSDYSIAXDKIHQQDFVNWLLAQK (A6c at 2 and 7; Nle at 14; C-terminal amide) [(A6c^2, 7, Nle^14)hGIP(1-30)-NH2] yielded a Ki of 47 nM. YXEGTFISDYXIAXDKIHQQDFVNWLLAQK (Aib at 2 and 11; A6c at 14; C-terminal amide) [(Aib^2, 11, A6c^14)hGIP(1-30)-NH2] was tested, and the Ki was 0.73 nM. For YXEGTFIXDYSIAMDKIHQQDFVNWLLAQK (Aib at 2 and 8; C-terminal amide) [(Aib^2, 8)hGIP(1-30)-NH2], the Ki was 15.9 nM. YXEGTFXSDYSIAMDKIHQQDFVNWLLAQK (Aib at 2 and 7; C-terminal amide) [(Aib^2, 7)hGIP(1-30)-NH2] showed a Ki of 0.53 nM. YXEGTFIXDYSIAMDKIHQQDFVNWLLAQKGKKNDWKHNITQ (Aib at 2 and 8; C-terminal free acid) [(Aib^2, 8)hGIP(1-42)-OH] was tested, and the Ki was 16.2 nM. Work on YXEGTFISDYXIAMDKIHQQDFVNWLLAQKGKKNDWKHNITQ (Aib at 2 and 11; C-terminal free acid) [(Aib^2, 11)hGIP(1-42)-OH] yielded a Ki of 1.2 nM. With YXEGTFXSDYSIAXDKIHQQDFVNWLXAQKGKKNDWKHNITQ (Aib at 2; A6c at 7 and 27; Nle at 14; C-terminal free acid) [(Aib^2, A6c^7, 27, Nle^14)hGIP(1-42)-OH] the Ki was 121 nM. Molecule YXEGTFXSDYSIAXDKXHQQDFVNWLLAQKGKKNDWKHNITQ (Aib at 2; A6c at 7 and 17; Nle at 14; C-terminal free acid) [(Aib^2, A6c^7, 17, Nle^14)hGIP(1-42)-OH] has a Ki of 1.06 nM. YXEGTFISXYSIAMDKIHQQDFVNWLLAQKGKKNDWKHNITQ (Aib at 2 and 9; C-terminal free acid) [(Aib^2, 9)hGIP(1-42)-OH] was tested, and the Ki was 2.66 nM. YXEGTFXSDYSIXXDKIHQQDFVNWLLAQKGKKNDWKHNITQ (Aib at 2 and 13; A6c at 7; Nle at 14; C-terminal free acid) [(Aib^2, 13, A6c^7, Nle^14)hGIP(1-42)-OH] was tested, and the Ki was 0.3 nM. YXEGTFXSDYSIAMDKIHQQDFVNWLLAQKXKKNDWKHNITQ (Aib at 2 and 31; A6c at 7; C-terminal free acid) [(Aib^2, 31, A6c^7)hGIP(1-42)-OH] gave a Ki of 6.96 nM. YXEGTFXSDYSIAXDKIHQQDFVNWXLAQKGKKNDWKHNITQ (Aib at 2; A6c at 7 and 26; Nle at 14; C-terminal free acid) [(Aib^2, A6c^7, 26, Nle^14)hGIP(1-42)-OH] showed a Ki of 2.54 nM. YXEGTFXSDYSIAXDKIHQQDFVNWLLAQKXKKNDWKHNITQ (Aib at 2 and 31; A6c at 7; Nle at 14; C-terminal free acid) [(Aib^2, 31, A6c^7, Nle^14)hGIP(1-42)-OH] was tested, and the Ki was 2.06 nM. In the case of Y[Aib]EGTF[Ac6c]SDYSIA[Nle]DKIHQQDFVNWLL[Aib]QKGKKNDWKHNITQ-OH [(Aib^2, 28, A6c^7, Nle^14)hGIP(1-42)-OH], the Ki is reported as 1.22 nM. Work on Y[Aib]E[Aib]TFISDYSIAMDKIHQQDFVNWLLAQKGKKNDWKHNITQ-OH [(Aib^2, 4)hGIP(1-42)-OH] yielded a Ki of 80.1 nM. YXEGTFISDYXIAXDKIHQQDFVNWLLAQK (Aib at 2 and 11; Nle at 14; C-terminal amide) [(Aib^2, 11, Nle^14)hGIP(1-30)-NH2] showed a Ki of 1.39 nM. Work on YXPGTFISDYXIAXDKIHQQDFVNWLLAQK (Aib at 2; A5c at 11; A6c at 14; C-terminal amide) [(Aib^2, Pro^3, A5c^11, A6c^14)hGIP(1-30)-NH2] yielded a Ki of 34.1 nM. In the case of YXEGTFXSDYSIAMDKIHQQDFVNWLLAQK (Aib at 2; A5c at 7; C-terminal amide) [(Aib^2, A5c^7)hGIP(1-30)-NH2], the Ki is reported as 0.27 nM. In the case of YXPGTFXSDYSIAMDKIHQQDFVNWLLAQK (Aib at 2; A6c at 7; C-terminal amide) [(Aib^2, Pro^3, A6c^7)hGIP(1-30)-NH2], the Ki is reported as 333 nM. Molecule YXEGXFISDYSIAMDKIHQQDFVNWLLAQK (Aib at 2 and 5; C-terminal amide) [(Aib^2, 5)hGIP(1-30)-NH2] has a Ki of 3.33 nM. YAEGTFISDYXIAMDKIHQQDFVNWLLAQKH (D-Ala at 2; A5c at 11; C-terminal amide, X stands for the non-natural residue) [(D-Ala^2, A5c^11, His^31)hGIP(1-31)-NH2] was tested, and the Ki was 0.87 nM. YGEGTFISDYXIAXDKIHQQDFVNWLLAQKGKKNDWKHNITQH (A5c at 11; Nle at 14; C-terminal free acid) [(Gly^2, A5c^11, Nle^14, His^43)hGIP(1-43)-OH] gave a Ki of 0.87 nM. YXEGTFISDYXIAXDKIHQQDFVNWLLAQKGKKNDWKHNITQH (Aib at 2; A5c at 11 and 14; C-terminal free acid) [(Aib^2, A5c^11,14, His^43)hGIP(1-43)-OH] gave a Ki of 0.55 nM. With YAEGTFISDYXIAXDKIHQQDFVNWLLAQKGKKNDWKHNITQH (D-Ala at 2; A5c at 11; Nle at 14; C-terminal free acid, X stands for the non-natural residue) [(D-Ala^2, A5c^11, Nle^14, His^43)hGIP(1-43)-OH] the Ki was 0.66 nM. YXEGTFXSDYSIAXDKIHQQDFVNWLLAQK (A5c at 2 and 7; Nle at 14; C-terminal amide) [(A5c^2, 7, Nle^14)hGIP(1-30)-NH2] showed a Ki of 25.8 nM. For Y[Aib]EGTF[Ac6c]SDYSIA[Nle]DKIHQQDFVNWLLAQKGKKNDWKHN[Ac6c]TQ-OH [(Aib^2, A6c^7, 40, Nle^14)hGIP(1-42)-OH], the Ki was 1.09 nM. For YXEGTFISDYSXAMDKIHQQDFVNWLLAQK (Aib at 2; A5c at 12; C-terminal amide) [(Aib^2, A5c^12)hGIP(1-30)-NH2], the Ki was 0.98 nM. YXEXTFISDYSIAMDKIHQQDFVNWLLAQK (Aib at 2 and 4; C-terminal amide) [(Aib^2, 4)hGIP(1-30)-NH2] was tested, and the Ki was 107 nM. Molecule YXEGTFXSDYSIAXDKIHQQDFVNWLLAQK (Aib at 2; A6c at 7; Nle at 14; C-terminal amide) [(Aib^2, A6c^7, Nle^14)hGIP(1-30)-NH2] has a Ki of 1.04 nM. With YXEGXFISDYSIAMDKIHQQDFVNWLLAQK (Aib at 2; A5c at 5; C-terminal amide) [(Aib^2, A5c^5)hGIP(1-30)-NH2] the Ki was 2.05 nM. YAPGTFISDYXIAXDKIHQQDFVNWLLAQK (A5c at 11; A6c at 14; C-terminal amide) [(Pro^3, A5c^11, A6c^14)hGIP(1-30)-NH2] gave a Ki of 871 nM. For YAEGTFISDYXIAXDKIHQQDFVNWLLAQK (D-Ala at 2; A5c at 11 and 14; C-terminal amide, X stands for the non-natural residue) [(D-Ala^2, A5c^11, 14)hGIP(1-30)-NH2], the Ki was 0.46 nM. With Y[Aib]EGTF[Ac6c]SDYSIAMDKIHQQDFVNWLLAQKGKKNDWKHNI[Aib]Q-OH [(Aib^2, 41, A6c^7)hGIP(1-42)-OH] the Ki was 0.87 nM. YXEGTFXSDYSIAXDKIHQQDFVNWLLAQK (Aib at 2; A5c at 7; Nle at 14; C-terminal amide) [(Aib^2, A5c^7, Nle^14)hGIP(1-30)-NH2] was tested, and the Ki was 4.9 nM. For YXEGTFISDYXIAMDKIHQQDFVNWLLAQK (Aib at 2 and 11; C-terminal amide) [(Aib^2, 11)hGIP(1-30)-NH2], the Ki was 0.37 nM. In the case of YXPGTFISDYXIAMDKIHQQDFVNWLLAQK (Aib at 2; A5c at 11; C-terminal amide) [(Aib^2, Pro^3, A5c^11)hGIP(1-30)-NH2], the Ki is reported as 216 nM. Y[Aib]EGTF[Ac6c]SDYSIA[Nle]DKIHQQDFVNWLLAQKGKKNDWKHNI[Ac6c]Q-OH [(Aib^2, A6c^7, 41, Nle^14)hGIP(1-42)-OH] showed a Ki of 1.17 nM. YXEGTFISXYSIAMDKIHQQDFVNWLLAQK (Aib at 2 and 9; C-terminal amide) [(Aib^2, 9)hGIP(1-30)-NH2] was tested, and the Ki was 5.38 nM. For YXEGTFXSDYSIAXDKIHQQDFVNWLLAQK (Aib at 2; A5c at 7 and 14; C-terminal amide) [(Aib^2, A5c^7, 14)hGIP(1-30)-NH2], the Ki was 2.32 nM. With Y[Aib]EGTF[Ac6c]SDYSIA[Nle]DKIHQQDFVNWLLAQKGKKNDWKHNI[Aib]Q-OH [(Aib^2, 41, A6c^7, Nle^14)hGIP(1-42)-OH] the Ki was 1.33 nM. Molecule Y[Aib]EGTF[Aib]SDYSIAMDKIHQQDFVNWLLAQKGKKNDWKHNITQ-OH [(Aib^2, 7)hGIP(1-42)-OH] has a Ki of 0.75 nM. Molecule Y[Aib]EGTF[Ac6c]SDYSIAMDKIHQQDFVNWLLAQKC(Psu)KKNDWKHNITQ-OH [[Aib^2, A6c^7, Cys(Psu)^31]hGIP(1-42)-OH] has a Ki of 75.8 nM. Y[Aib]EGTF[Ac6c]SDYSIAMDKIHQQDFVNWLLAQKGKKNDWKHNC(Psu)TQ-OH [[Aib^2, A6c^7, Cys(Psu)^40]hGIP(1-42)-OH] gave a Ki of 16 nM. Y[Aib]EGTF[Ac6c]SDYSIAMDKIHQQDFVNWLLAQKGKKNDC(Psu)KHNITQ-OH [[Aib^2, A6c^7, Cys(Psu)^36]hGIP(1-42)-OH] showed a Ki of 635 nM. Work on Y[Aib]EGTF[Ac6c]SDYSIAMDKIHQQDFVNWLLAQKGKC(Psu)NDWKHNITQ-OH [[Aib^2, A6c^7, Cys(Psu)^33]hGIP(1-42)-OH] yielded a Ki of 1.51 nM. With Y[Aib]EGTF[Ac6c]SDYSIAMDKIHQQDFVNWLLAQKGKKC(Psu)DWKHNITQ-OH [[Aib^2, A6c^7, Cys(Psu)^34]hGIP(1-42)-OH] the Ki was 356 nM. B1 was tested, and the Ki was 63.6 nM. Y[Aib]EGTF[Ac6c]SDYSIAMDKIHQQDFVNWLLAQKGKKNC(Psu)WKHNITQ-OH [[Aib^2, A6c^7, Cys(Psu)^35]hGIP(1-42)-OH] gave a Ki of 288 nM. For Y[Aib]EGTF[Ac6c]SDYSIAMDKIHQQDFVNWLLAQKGKKNDWC(Psu)HNITQ-OH [[Aib^2, A6c^7, Cys(Psu)^37]hGIP(1-42)-OH], the Ki was 22.7 nM. Y[Aib]EGTF[Ac6c]SDYSIAMDKIHQQDFVNWLLAQKGKKNDWKC(Psu)NITQ-OH [[Aib^2, A6c^7, Cys(Psu)^38]hGIP(1-42)-OH] was tested, and the Ki was 5.05 nM. For Y[Aib]EGTF[Ac6c]SDYSIAMDKIHQQDFVNWLLAQKGC(Psu)KNDWKHNITQ-OH [[Aib^2, A6c^7, Cys(Psu)^32]hGIP(1-42)-OH], the Ki was 2.59 nM. With Y[Aib]EGTF[Ac6c]SDYSIAMDKIHQQDFVNWLLAQKGKKNDWKHC(Psu)ITQ-OH [[Aib^2, A6c^7, Cys(Psu)^39]hGIP(1-42)-OH] the Ki was 13.8 nM. YXEGTFISDYSXAMDKIHQQDFVNWLLAQK (Aib at 2 and 12; C-terminal amide) [(Aib^2, 12)hGIP(1-30)-NH2] showed a Ki of 1.84 nM.
